Publication PMC4718742

Molecular target: human CrkII (1–304) (human) (UniProt P46108)
Assay: NMR titration

Chain of human CrkII (1–304) (human) (P46108 whole entry): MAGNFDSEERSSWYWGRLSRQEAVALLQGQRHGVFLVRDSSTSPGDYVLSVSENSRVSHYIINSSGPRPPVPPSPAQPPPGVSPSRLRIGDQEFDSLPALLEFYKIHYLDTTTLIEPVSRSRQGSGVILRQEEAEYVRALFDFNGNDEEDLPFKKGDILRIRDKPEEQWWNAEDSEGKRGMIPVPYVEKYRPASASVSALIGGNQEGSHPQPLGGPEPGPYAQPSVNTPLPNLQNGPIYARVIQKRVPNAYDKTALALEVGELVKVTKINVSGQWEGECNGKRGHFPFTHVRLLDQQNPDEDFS

Kd: 15 µM
Substance: human CypA (1–165) (from UniProt P62937 1-165) (enzyme; other documents disagree on this pair)
